test: yeast display, Sf9 membrane polyspecificity reagent, FACS + sequencing; frameworks hold sequencing errors
Summary of the method: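 Polyreactivity labels are assigned by the sorting gate from which each nanobody was recovered. The gates were low and high (top ~1%), set on anti-HA fluorescence for expression and streptavidin fluorescence for reagent binding. Before sorting, galactose-induced (36–48 hours) yeast display cells were stained for 1 hour at 4 °C with 10% biotinylated, detergent-solubilized Sf9 membrane reagent.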

Sequence | polyreactivity (PSR sort gate)
QVQLVESVGGLVQAGGSLRLSCAASGNTFRRNVMGLYRQAPGKERELVAAINRGGSTYYADSVKGRFTISRDNAKNTVYLQMNSLKPEDTAVYYCNAVTRGYYHEMEYWGQGTQVTVSS | high polyreactivity
QVQLVESVGGLVQAGGSLRLSCAASGRIFDSYTMGWYRQAPGKERELVAAISRGGGSTYYADSVKGRFTISRDNAKYTVYLQMNSLKPEDTAVYYCAASSYLNSRFKFDYWGQGTQVTVSS | low polyreactivity
QVQLVESVGGLVQAGGSLRLSCAASGRIFGFSTMGWYRQARGKDRELVATISWSGSGTYYADSVKGRFTISRDNAYNTVYLQMNRLKPEDTAVYYCNADWYYFGYDYWGQGTQVTVST | low polyreactivity
QVQLVESVGGLVQAGGSLRLSCAASGRIFGRYAMGWYRQAPGKESELVAAISTNGGRTYYADSVKGRFTISRDNAKNTVYLQRKSLKPEDNADYYCARAYRGPGYVIRYDYWGQGTQVTVSS | high polyreactivity
QVQLVESVGGLVQAGGSLRLSCAASGRIFKWYAMGWYRQAPGKERELVAAITSGGGSTYYADSVKGRFTISRDNAKNTVYLQINSLKPEDTAVYYCNAKAPAEIRSYLRTSRYDYWGQGTQVTVSS | high polyreactivity
QVQLVESVGGLVQAGGSLRLSCAASGRIFPTYAMGSSRQAPGKERELVAAISRSGGRTYYADSVKGRFTSSRDNAKNTVYLQMNSLKPEDTAVYYCNAEGDPYVDFPSRSTGYDYWGQGTQVTVSS | high polyreactivity
QVQLVESVGGLVQAGGSLRLSCAASGRIFRFYAMGWYRQAPGKERELVAAISSSGVRTYYADSVKGRFTISRDNAKKTVYLQINSLTPEDTAVYYCAASRHFARHRGYYFRYDYWGQGTQVTVSS | high polyreactivity
QVQLVESVGGLVQAGGSLRLSCAASGRIFRYYAMGWSSQAPGKESELVAAITSDGRTYYADSVKGRFTISRDNAKNTVYLQMNSQKPEDTAVYYCAADHHSYRYGGYYYWGQGTQVTVAS | low polyreactivity
QVQLVESVGGLVQAGGSLRLSCAASGRTFDGNAMGWYRQAPGKERELVAAIRFNGSTTYYADSVKGRFTISRDNSKNTVYLQMNSLKPEDTAVYYCNKFEGALGGMDYWGQGTQVTVSS | low polyreactivity
QVQLVESVGGLVQAGGSLRLSCAASGRTFGGNAMGWYRQAPGKERELVAVITGSGARTYYADSVKGRFTISRDNAKNTVYLQMNSLKPEDTAVYYCAAAGYSGQYRSYYWGQGTQVTVSS | high polyreactivity
QVQLVESVGGLVQAGGSLRLSCAASGRTFGRKALVWYTQAPGKERELVAAISTSGSRTYYADSVKGRFTISRDNAKNTVYLQLNSLTPEDTAVYYCYAYGVSRGSYGTRGYWGQGTQVTVSS | high polyreactivity
QVQLVESVGGLVQAGGSLRLSCAASGRTFGRYAMGWDRQAPGKERELVAAISWSGATTYYADSVKGRFTISRDNAKNTVYLQMNSLKPEDTAVYYCAARFRRGITYEYWGQGTQVTVSS | high polyreactivity
QVQLVESVGGLVQAGGSLRLSCAASGRTFGRYAMGWYRQAPGKERELVAGISRSGDSTHYADSVKGRFTISRDNAKNTVYLQMNSLKPEDTAVYYCNKETPTNGARKYEYWGQGTQVTVSS | low polyreactivity
QVQLVESVGGLVQAGGSLRLSCAASGRTFLRNAMGWYRQAPGKERELVASITSRGGRTYADSVKGRFTISRDNAKNTVYLQMNSLKPEDTAVYYCAARRQAGLRYDYWGQGTQVTVSS | high polyreactivity
QVQLVESVGGLVQAGGSLRLSCAASGRTFMYNAMGWYRQAPGKERELVAAISWSGGSTYYADSVKGRFTISRDNAKNTVYFLMNSLKPEDTAVYYCAATGRRSGFYFWGQGTQVTVSS | high polyreactivity
QVQLVESVGGLVQAGGSLRLSCAASGRTFPYYAKGGYRQAPWKERELVATISSGGITNYADSVKVRFTISRDNAKNTVYLQMNSLKPEDTAVYYCAADRHWSAGLWRYDYWGQGTQVTVSS | high polyreactivity
QVQLVESVGGLVQAGGSLRLSCAASGRTFVRYTMGWYRQAPGKERELVAAITWSGGSTYYADSVKGRFTISRDNATNTVYLQMNSLKPEDTAVYDCAARTYFGTQLQRYYWGQGTQVTVSS | high polyreactivity
QVQLVESVGGLVQAGGSLRLSCAASGRTLRYYAMGWYRQAPGKERELVATITRRSGSTYYADSVKGRFTISRDNAKNTVYLQMNSLKPEDTAVYYCNAVWRPGERDYWGQGTQVTVSS | low polyreactivity
QVQLVESVGGLVQAGGSLRLSCAASGSIEAYAMGWYRQAPGKERELVASITWRGGSTYYADSVKGRFTISRDNAKNTVYLQMNSLKPEDTAVYYCAAGFQTRTPLNQFDYWGQGTQVTVSS | low polyreactivity
QVQLVESVGGLVQAGGSLRLSCAASGSIFAIYVMGSYRQAPGKERELVAAISYRSGSTYYADSVKGRFTISRDNAKNTVYLQMNSLKPEDTAVYYCAATSRYYTFGYWGQGTQVTVSS | low polyreactivity
QVQLVESVGGLVQAGGSLRLSCAASGSIFAPYAMGWYRQAPGKERELVAAITWSGDSTYYADSVKGRFTISRDNAKNTVYLQMNSLKPEDTAVYYCATEEVYGQGNYWGQGTQVTVSS | low polyreactivity
QVQLVESVGGLVQAGGSLRLSCAASGSIFAVNAMGWYRKAPGTERELVAAITSSGVDTYYADSVKGRFTISRDNAKNTVYLQMNSLKPEDTAVYYCAADDQLNWYDYWGQGTQVTVSS | low polyreactivity

Sequence | polyreactivity (PSR sort gate)
QVQLVESVGGLVQAGGSLRLSCAASGSIFHYNALGWYRPAPGKERELVAAITSGGSTYADSVKGRFTISRDNAKNTVYLQMNSLKPEDTAVYYCNADSVGPRGDLGYWGQGTQVTVSS | low polyreactivity
QVQLVESVGGLVQAGGSLRLSCAASGSIFLQYTMGWYRQAPGKERELVAAITESDGSTYYADSVKGRFTISRDNAKNTVYLQMNSLKPEDTAVYYCAADVVYFKYWDKYDYWGQGTQVTVSS | low polyreactivity
QVQLVESVGGLVQAGGSLRLSCAASGSIFRLYAMGWYRQAPGKERELVAAITWSGGSTYYADSVKGRFTISRDNAKNTVYLQMNSLKPEDTAVYYCNALVGGYRSAIFGYWGQGTQVTVSS | high polyreactivity
QVQLVESVGGLVQAGGSLRLSCAASGSIFSSYAMGWYRQAPGKERELVAAITSGGSTYYADSVKGRFTISRDNAKNTVYLQMNSLKPVDPAVYYCAAREVLTSKLHMGYWGTGTQVTVSS | low polyreactivity
QVQLVESVGGLVQAGGSLRLSCAASGSIFTYNAMGWYRQAPGKERELVAAITTSGDSTYYADSVKGRFTISRDNAKNTVYLQMNSLKPEDTAVYYCNADWSWYNYYDFDYWGQGTQVTVSS | low polyreactivity
QVQLVESVGGLVQAGGSLRLSCAASGSIFVKNAMGWYRQAPGKEREFVAVISTGDSTHYADSVKGRFTISRDNAKNTVYLQMNSLKPEDTAVYYCAARYYSYGSSYGYWGQGTQVTVSS | high polyreactivity
QVQLVESVGGLVQAGGSLRLSCAASGSIFVKNAMGWYRQAPGKERELVAVITIRTATTYYADSVKGRFTISRDNAKNTVYLQMNSLKPEDTAVYYCAAAKRQRGYLQREYDYWGQGTQVTVSS | low polyreactivity
QVQLVESVGGLVQAGGSLRLSCAASGSIFYWSAMGWYRQAPGKERELVAAISSGGSTNYADSVKGRFTISRDNAKNTVYLQMNSLKPEDTAVYYCAAGWDASYGYDYWGQGTQVTVSS | low polyreactivity
QVQLVESVGGLVQAGGSLRLSCAASGSNFYVNAMGWYRQAPGKERELVAAISRRGGSTYYADSVKGRFTISRDNAKNTVSLQMNSLKPEDTAVYYCNKAIRGQAPSGPEYYYWGHGTQVTVSS | high polyreactivity
QVQLVESVGGLVQAGGSLRLSCAASGSTFGIYTMGWYRQAPGKERELVAAISSRGGSTYYADSVKGRFTISRDNAKNTVYLQMNSLKPEDTAVYYCAAVGRSHSRPYTDEYWGQGTQVTVSS | high polyreactivity
QVQLVESVGGLVQAGGSLRLSCAASGSTFGYYTMGSYRQAPGKEKELVAAITWSGGSTYYADSVKGRITISRDNAKYTVYLQINSLKPEDTAVYYCADDDYWTPFGYLGQGTQVTVSS | low polyreactivity
QVQLVESVGGLVQAGGSLRLSCAASGSTFHRNTMGWDRQAPGKERELVAGISLRGVRTYYADSVKGRFTISRDKAKNTVYLQMNSLKPEDTAVYYCAAGCPYTRNFKLGYWGQGTQVTVSS | high polyreactivity
QVQLVESVGGLVQAGGSLRLSCAASGSTFIIYAMGWYRQAPGKERELVATISTRGTSTYYADSVKGRFTISRDNEKNTVYLQMKSLKPEDTAVYYCNARRRGYGNRYTFDYWGQGTQVTVSS | high polyreactivity
QVQLVESVGGLVQAGGSLRLSCAASGSTFRPYAMGWSRQAPGKERELVAAITGSGGSTYYADSVKGRFTISRDNAKNTVYLQMNSLKPEDTAVYYCNAVSTWRYYYWGQGTQVTVSS | high polyreactivity
QVQLVESVGGLVQAGGSLRLSCAASGSTFRYYAMGWYRQAPGKERELVAAITGSGGSTYYADSVKGRFTISRDNAKNTVYLQMNSLKPEDTAVYYCAAYCSRSILRYDSWGQGTQVTVSS | high polyreactivity
QVQLVESVGGLVQAGGSLRLSCAASGSTFTAYAMGWYRQAPGKERELVAAITSGGSKNYADSVKGRFTISRDNAKNTVYLQMNSLKPEDTAVYYCNADDYWLDSWSSFLWYDYWGQGTQVTVSS | low polyreactivity
QVQLVESVGGLVQAGGSLRLSCAASGSTFTSNAMGWYRQAPGKEREFVAAISVGGGITYYADSVKGRFTISRDNAKNTVYLQMNSLKPEDTAVYYCAADAWSVILWREMDYWGQGTQVTVSS | low polyreactivity
QVQLVESVGGLVQAGGSLRLSCAASGSTFWYNAMGWYRLAPGKERELVAAISQSGGRTYYADSVKGRFTISRDNAKNTVYLQMNSLKPEDTAVYYCNAVSRDKSLYDYWGQGTQVTVSS | high polyreactivity
QVQLVESVGGLVQAGGSLRLSCAASGSTIDGYAMGCYIQAPGKEREFVAAISFSSASTYYADSVKGRFTISRDNAKNTVYLQMNSLKPEDTAVYYCNADFFDSGGSIEDDSWGQGTQVTVSS | low polyreactivity
QVQLVESVGGLVQAGGSLRLSCAASGYILPKNTMGWYIQAPGKERELVAAISWSGGSTFYADSVKGRFTISRDNAKNTVYLQMNRLKPEDTAVYYCAADRSWSWYYRYDYWGQGTQVTVSS | low polyreactivity
QVQLVESVGGLVQAGGSLRLSCAASVYMFYDYDMGWYRQAPGKAREFVARITSDGSTYADSVKGRFTISRDNAKNTVYLQMNMLKPEDTAVYYCNRKSRSYFWSVQDSFKYDYWGQGTQVTVSS | low polyreactivity

From the nanobody polyreactivity screen of Harvey et al. (2022)
